Results taken from patent publication US20220347324A1 (Bristol-Myers Squibb, published 2022).
Each block holds one binder with its values, some of them ahead of it.

Tests used:
[1] = biological target: T1, human PD-L1 expressed on cells (hPD-L1-positive L2987 cells, L2987 xenografts, human lung tumor tissue) (human, UniProt Q9NZQ7 19-290); test: radiotracer cell binding, 1 h on ice, gamma counter
T1 construct: whole, on cells; also called hPD-L1(+) L2987; PD-L1 positive cells L2987
Protocol: After the incubation period, cell samples were centrifuged at 200×g and the supernatant was discarded. Cell pellets were resuspended in 1 mL PBS+0.5% BSA and the wash procedure repeated for a total of 3 washes. Following the final wash, cells were again centrifuged at 200×g and the supernatant was discarded. The radioactivity of the remaining cell pellets was then measured by gamma counter.

[2] = biological target: T1, human PD-L1 expressed on cells …; test: in vivo PET in mice with bilateral xenografts, last 10 min of a 2 h scan
Protocol: (§1) A 10-minute transmission image was first acquired using a ⁵⁷Co point source for the purpose of attenuation correction of the final PET images. Following the transmission scan, radiotracer solutions were administered via the previously installed tail vein catheters and a 2 hour emission image was acquired. […] All injections were formulated in 200 μL saline prior to injection. Exact injected doses were calculated by taking direct measurements of the formulated dose and subtracting the radioactivity remaining in the syringe and the tail vein catheter.
(§2) Images were reconstructed using a maximum a posteriori (MAP) algorithm with attenuation correction using the collected transmission images and corrected for radioisotope decay. In the final images, regions of interest (ROIs) were drawn around the tumor boundary using ASIPro software (Siemens Preclinical Solutions). Time-activity curves were calculated for each ROI to yield a quantitative view of radiotracer within the tumor volume over the course of the 2 hour emission image. For final comparison, individual time-activity curves were normalized based on the injected radiotracer dose for each specific animal. Radiotracer uptake was compared across tumors using the final 10 minutes of each time-activity curve (1 hour 50 minutes-2h post-radiotracer injection).

[3] = biological target: T1, human PD-L1 expressed on cells …; test: in vivo PET in mice, co-injected with 3 mg/kg unlabeled A02 Adnectin as competitor
Protocol: as §1, §2

[4] = biological target: T1, human PD-L1 expressed on cells …; test: in vivo PET in mice with bilateral xenografts
Description: Briefly, nude mice were subcutaneously implanted bilaterally with HT-29 and L2987 cells. Once tumors reached approximately 200-300 mm³, animals were selected for imaging. Mice were anesthetized with 2% isoflurane in oxygen and placed onto the imaging bed of a Focus 120 PET imaging system (Siemens Preclinical Solutions). […] A 10-minute transmission image was then collected using a ⁵⁷Co point source for use as attenuation correction. Images were reconstructed using a 3D maximum a posteriori algorithm with attenuation correction using AsiPro software (Siemens Preclinical Solutions).

[5] = biological target: T1, human PD-L1 expressed on cells …; test: cell binding to human PD-L1 positive L2987 cells; Adnectin marked (Cys-Capped)

fold cell associated radioactivity, hPD-L1-positive L2987 cells against hPD-L1-negative HT-29 cells [1]: 44.6 fold
B1: 64Cu-E01-NODAGA (designed binder)
chain: GVSDVPRDLEVVAATPTSLLISWRAQLSPSFYYRITYGETGGNSPVQEFTVPNDVMTATISGLKPGVDYTITVYAVTTHGVYFYSPISINYRTPC
modifications: C-terminal cysteine linked by maleimide to NODAGA chelating 64Cu
notes: E01 with C-terminal PC (ADX_5417_E01 w/ N leader and modified C-terminus); also called 64Cu-E01 anti-PD-L1 Adnectin

radiotracer uptake, hPD-L1(+) L2987 xenografts against hPD-L1(-) HT-29 xenografts [2]: 3.05 fold | radiotracer uptake, hPD-L1(+) L2987 xenografts against hPD-L1(-) HT-29 xenografts, with cold competitor [3]: 1.04 fold
B2: 64Cu-A02-NODAGA (designed binder)
chain: GVSDVPRDLEVVAATPTSLLISWSYDGPIDRYYRITYGETGGNSPVQEFTVPPDQKTATISGLKPGVDYTITVYAVRLEEAHYNREFPISINYRTPC
modifications: C-terminal cysteine linked by maleimide to NODAGA chelating 64Cu
notes: A02 with C-terminal PC; also called NODAGA-64Cu-labeled A02 anti-PD-L1 Adnectin

maximum radiotracer uptake ratio, hPD-L1(+) L2987 against hPD-L1(-) HT-29 xenografts [4]: 3.53 ratio
B3: [18F]-A02-4PEG-DBCO-FPPEGA (designed binder)
chain: GVSDVPRDLEVVAATPTSLLISWSYDGPIDRYYRITYGETGGNSPVQEFTVPPDQKTATISGLKPGVDYTITVYAVRLEEAHYNREFPISINYRTPC
modifications: C-terminal cysteine linked to Maleamide-DBCO-FFP(18F)
notes: also called 18F-DBCO-A02 anti-PD-L1 Adnectin; ADX_5322_A02-Mal-DBCO-FFPF18

EC50 [5]: 430 pM
B4: ADX_5322_A02 (designed binder)
chain: MGVSDVPRDLEVVAATPTSLLISWSYDGPIDRYYRITYGETGGNSPVQEFTVPPDQKTATISGLKPGVDYTITVYAVRLEEAHYNREFPISINYRTPCHHHHHH
notes: C-terminus NYRTPCH6
